B1: 5115-H1-M1-Fc (Fc fusion)
chain: EVQLVESGGGLVQPGGSLRLSCAASGRTFSSFVMSWFRQAPGKEREFVSAISGSGSRSRYADSVKGRFTISRDNSKNTLYLQMNSLRAEDTAVYYCAANPRRATPDYTQYAYWGQGTLVTVSS
notes: VHH-Fc; Fc not specified; not shown: Fc
B2: 5115-H1-M2-Fc (Fc fusion)
chain: EVQLVESGGGLVQPGGSLRLSCAASGRTFSSFVMSWFRQAPGKEREFVSAISGSGSRARYADSVKGRFTISRDNSKNTLYLQMNSLRAEDTAVYYCAANPRRATPDLLQYAYWGQGTLVTVSS
notes: as for B1
B3: 5115-H1-M28-Fc (Fc fusion)
chain: EVQLVESGGGLVQPGGSLRLSCAASGRTFSSFVMSWFRQAPGKEREFVSAISGSGSRYRYADSVKGRFTISRDNSKNTLYLQMNSLRAEDTAVYYCAANPRRATPDLKQYAYWGQGTLVTVSS
notes: as for B1
B4: 5115-H1-M9-Fc (Fc fusion)
chain: EVQLVESGGGLVQPGGSLRLSCAASGRTFSSFVMSWFRQAPGKEREFVSAISGSGSRLRYADSVKGRFTISRDNSKNTLYLQMNSLRAEDTAVYYCAANPRRATPDLLQYAYWGQGTLVTVSS
notes: as for B1
B5: 5115-H1-M6-Fc (Fc fusion)
chain: EVQLVESGGGLVQPGGSLRLSCAASGREFSSFVMAWFRQAPGKGLEFVSAISGSGSRARYADSVKGRFTISRDNSKNTLYLQMNSLRAEDTAVYYCAANPRRATPDLTSYAYWGQGTLVTVSS
notes: as for B1
B6: 5115-H1-M7-Fc (Fc fusion)
chain: EVQLVESGGGLVQPGGSLRLSCAASGRTFSSFVMSWFRQAPGKEREFVSAISGRGSRAYYADSVKGRFTISRDNSKNTLYLQMNSLRAEDTAVYYCAANPRRATPDLRQYAYWGQGTLVTVSS
notes: as for B1
B7: 5115-H1-M5-Fc (Fc fusion)
chain: EVQLVESGGGLVQPGGSLRLSCAASGRYFSSFVMAWFRQAPGKGLEFVSAISGSGLRARYADSVKGRFTISRDNSKNTLYLQMNSLRAEDTAVYYCAANPRRATPDLTSYAYWGQGTLVTVSS
notes: as for B1
B8: 5115-H1-M24-Fc (Fc fusion)
chain: EVQLVESGGGLVQPGGSLRLSCAASGRTFSGFVMAWFRQAPGKGLEFVSAISGTGSRARYADSVKGRFTISRDNSKNTLYLQMNSLRAEDTAVYYCAANPRRATPDLTQYAYWGQGTLVTVSS
notes: as for B1
B9: 5115-H1-M29-Fc (Fc fusion)
chain: EVQLVESGGGLVQPGGSLRLSCAASGRTFSSFVMSWFRQAPGKEREFVSAISGSGSRAYYADSVKGRFTISRDNSKNTLYLQMNSLRAEDTAVYYCAANPRRATPDLRQYAYWGQGTLVTVSS
notes: as for B1
B10: 5115-H1-M33-Fc (Fc fusion)
chain: EVQLVESGGGLVQPGGSLRLSCAASMPTFSSFVMSWFRQAPGKEREFVSAISGSGSRSRYADSVKGRFTISRDNSKNTLYLQMNSLRAEDTAVYYCAANPRRATPDYTQYAYWGQGTLVTVSS
notes: as for B1
B11: 5115-H1-M27-Fc (Fc fusion)
chain: EVQLVESGGGLVQPGGSLRLSCAASGRTLSSFVMAWFRQAPGKGLEFVSAISGSGLRARYADSVKGRFTISRDNSKNTLYLQMNSLRAEDTAVYYCAANPRYATPDLTQYAYWGQGTLVTVSS
notes: as for B1
B12: 5115-H1-M16-Fc (Fc fusion)
chain: EVQLVESGGGLVQPGGSLRLSCAASHRTFSSFVMSWFRQAPGKEREFVSAISGSGSRARYADSVKGRFTISRDNSKNTLYLQMNSLRAEDTAVYYCAANPRRATPDLTQYAYWGQGTLVTVSS
notes: as for B1
B13: 5115-H1-M11-Fc (Fc fusion)
chain: EVQLVESGGGLVQPGGSLRLSCAASGIRFSSFVMSWFRQAPGKEREFVSAISGSGSRHRYADSVKGRFTISRDNSKNTLYLQMNSLRAEDTAVYYCAANPRRATPDYTQYAYWGQGTLVTVSS
notes: as for B1
B14: 5115-H1-M21-Fc (Fc fusion)
chain: EVQLVESGGGLVQPGGSLRLSCAASGKTFSSFVMSWFRQAPGKEREFVSAISGSGSRTRYADSVKGRFTISRDNSKNTLYLQMNSLRAEDTAVYYCAANPRRATPDYTQYAYWGQGTLVTVSS
notes: as for B1
B15: 5115-H1-M8-Fc (Fc fusion)
chain: EVQLVESGGGLVQPGGSLRLSCAASGRTFSSFVMSWFRQAPGKEREFVSAISGSGSRQRYADSVKGRFTISRDNSKNTLYLQMNSLRAEDTAVYYCAANPRRATPDLSQYAYWGQGTLVTVSS
notes: as for B1
B16: 5115-H1-M15-Fc (Fc fusion)
chain: EVQLVESGGGLVQPGGSLRLSCAASGRTFSSFVMSWFRQAPGKEREFVSAISGSGSRMRYADSVKGRFTISRDNSKNTLYLQMNSLRAEDTAVYYCAANPRRATPDLRQYAYWGQGTLVTVSS
notes: as for B1
B17: 5115-H1-M12-Fc (Fc fusion)
chain: EVQLVESGGGLVQPGGSLRLSCAASGRTFSSFVMSWFRQAPGKEREFVSAISGSGSRARYADSVKGRFTISRDNSKNTLYLQMNSLRAEDTAVYYCAANPRRATPDLRQYAYWGQGTLVTVSS
notes: as for B1
B18: 5115-H1-M30-Fc (Fc fusion)
chain: EVQLVESGGGLVQPGGSLRLSCAASGARFSSFVMSWFRQAPGKEREFVSAISGSGSRHRYADSVKGRFTISRDNSKNTLYLQMNSLRAEDTAVYYCAANPRRATPDYTQYAYWGQGTLVTVSS
notes: as for B1
B19: 5115-H1-M34-Fc (Fc fusion)
chain: EVQLVESGGGLVQPGGSLRLSCAASGRTFSSFVMSWFRQAPGKEREFVSAISGSGSRMRYADSVKGRFTISRDNSKNTLYLQMNSLRAEDTAVYYCAANPRRATPDMRQYAYWGQGTLVTVSS
notes: as for B1
B20: 5115-H1-M26-Fc (Fc fusion)
chain: EVQLVESGGGLVQPGGSLRLSCAASGRTFSSFVMSWFRQAPGKEREFVSAISGSGSRYTYADSVKGRFTISRDNSKNTLYLQMNSLRAEDTAVYYCAANPRRATPDLMQYAYWGQGTLVTVSS
notes: as for B1
B21: 5115-H1-M4-Fc (Fc fusion)
chain: EVQLVESGGGLVQPGGSLRLSCAASGRFFSSFVMSWFRQAPGKEREFVSAISGSGSRFRYADSVKGRFTISRDNSKNTLYLQMNSLRAEDTAVYYCAANPRRATPDYTQYAYWGQGTLVTVSS
notes: as for B1
B22: 5115-H1-M13-Fc (Fc fusion)
chain: EVQLVESGGGLVQPGGSLRLSCAASLGTFSSFVMSWFRQAPGKEREFVSAISGSGSRARYADSVKGRFTISRDNSKNTLYLQMNSLRAEDTAVYYCAANPRRATPDYTQYAYWGQGTLVTVSS
notes: as for B1
B23: 5115-H1-M18-Fc (Fc fusion)
chain: EVQLVESGGGLVQPGGSLRLSCAASGRRFSSFVMSWFRQAPGKEREFVSAISGSGSRARYADSVKGRFTISRDNSKNTLYLQMNSLRAEDTAVYYCAANPRRATPDLTQYAYWGQGTLVTVSS
notes: as for B1
B24: 5115-H1-M23-Fc (Fc fusion)
chain: EVQLVESGGGLVQPGGSLRLSCAASGRTFKSFVMSWFRQAPGKEREFVSAISGSGSRARYADSVKGRFTISRDNSKNTLYLQMNSLRAEDTAVYYCAANPRRATPDMTQYAYWGQGTLVTVSS
notes: as for B1
B25: 5115-H1-M19-Fc (Fc fusion)
chain: EVQLVESGGGLVQPGGSLRLSCAASGRTFSSFVMSWFRQAPGKEREFVSAISGSGSRMRYADSVKGRFTISRDNSKNTLYLQMNSLRAEDTAVYYCAANPRRATPDLHQYAYWGQGTLVTVSS
notes: as for B1
B26: 5115-H1-M25-Fc (Fc fusion)
chain: EVQLVESGGGLVQPGGSLRLSCAASGRFFSSFVMSWFRQAPGKEREFVSAISGSGSRARYADSVKGRFTISRDNSKNTLYLQMNSLRAEDTAVYYCAANPRRATPDYSQYAYWGQGTLVTVSS
notes: as for B1
B27: 5115-H1-M22-Fc (Fc fusion)
chain: EVQLVESGGGLVQPGGSLRLSCAASGRTFSSFVMSWFRQAPGKEREFVSAISGSGSRSRYADSVKGRFTISRDNSKNTLYLQMNSLRAEDTAVYYCAANPRRATPDLLQYAYWGQGTLVTVSS
notes: as for B1
B28: 5115-H1-M31-Fc (Fc fusion)
chain: EVQLVESGGGLVQPGGSLRLSCAASGRTFSSFVMSWFRQAPGKEREFVSAISGSGSRARYADSVKGRFTISRDNSKNTLYLQMNSLRAEDTAVYYCAANPRRATPDMRQYAYWGQGTLVTVSS
notes: as for B1
B29: 5115-H1-M14-Fc (Fc fusion)
chain: EVQLVESGGGLVQPGGSLRLSCAASGRTFSSFVMSWFRQAPGKEREFVSAISGSGSRMRYADSVKGRFTISRDNSKNTLYLQMNSLRAEDTAVYYCAANPRRATPDLTQYAYWGQGTLVTVSS
notes: as for B1
B30: 5115-H1-M20-Fc (Fc fusion)
chain: EVQLVESGGGLVQPGGSLRLSCAASGRTFRSFVMSWFRQAPGKEREFVSAISGSGSRYRYADSVKGRFTISRDNSKNTLYLQMNSLRAEDTAVYYCAANPRRATPDYTQYAYWGQGTLVTVSS
notes: as for B1
B31: 5115-H1-M32-Fc (Fc fusion)
chain: EVQLVESGGGLVQPGGSLRLSCAASGRARSSFVMSWFRQAPGKEREFVSAISGSGSRVRYADSVKGRFTISRDNSKNTLYLQMNSLRAEDTAVYYCAANPRRATPDYTQYAYWGQGTLVTVSS
notes: as for B1

target: T1, recombinant human IGF-1R-his (human, UniProt P08069 31-932); assay: ELISA, coated hIGF-1R-his
T1 construct: Recombinant his-tagged protein; also called hIGF-1R-his; hIGF1R-his; not shown: his tag
T1 sequence (P08069 31-932 limits assumed): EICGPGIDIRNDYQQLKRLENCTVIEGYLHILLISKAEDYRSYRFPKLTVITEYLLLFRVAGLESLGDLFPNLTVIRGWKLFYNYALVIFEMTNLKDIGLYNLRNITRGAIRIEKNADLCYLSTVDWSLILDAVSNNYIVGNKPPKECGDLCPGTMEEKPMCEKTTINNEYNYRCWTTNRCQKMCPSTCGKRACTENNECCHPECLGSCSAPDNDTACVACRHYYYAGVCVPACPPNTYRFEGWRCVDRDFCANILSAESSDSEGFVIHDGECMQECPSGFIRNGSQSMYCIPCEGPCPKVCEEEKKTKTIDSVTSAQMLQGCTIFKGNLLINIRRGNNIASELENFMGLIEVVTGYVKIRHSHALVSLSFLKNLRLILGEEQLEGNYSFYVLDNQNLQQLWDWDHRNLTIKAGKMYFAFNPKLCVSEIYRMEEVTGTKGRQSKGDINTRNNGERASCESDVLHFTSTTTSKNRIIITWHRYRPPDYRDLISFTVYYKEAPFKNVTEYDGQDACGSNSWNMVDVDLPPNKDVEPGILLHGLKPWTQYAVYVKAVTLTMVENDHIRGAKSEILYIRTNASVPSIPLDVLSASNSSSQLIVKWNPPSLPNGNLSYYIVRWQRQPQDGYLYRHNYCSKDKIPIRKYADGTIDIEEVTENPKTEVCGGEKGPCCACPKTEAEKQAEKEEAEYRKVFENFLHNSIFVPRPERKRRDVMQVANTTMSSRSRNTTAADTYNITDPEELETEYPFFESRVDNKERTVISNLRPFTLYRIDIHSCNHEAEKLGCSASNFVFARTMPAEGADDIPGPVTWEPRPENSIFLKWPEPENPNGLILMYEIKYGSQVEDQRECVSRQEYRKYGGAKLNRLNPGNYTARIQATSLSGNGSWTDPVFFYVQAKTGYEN
Description: The binding activity of the nanobody-Fc fusion proteins obtained after two rounds of mutant construction with the antigen proteins (recombinant human IGF-1R-His) was detected by an ELISA method: 2 μg/mL recombinant human IGF1R-His antigen proteins were added to a 96-well ELISA plate, at 30 μL/well, for coating overnight at 4° C. The plate was washed three times with PBST. PBS containing 5% skim milk powder was added for blocking at room temperature for 2 h. The plate was washed three times with PBST. The nanobody-Fc fusion proteins were serially diluted 3-fold, and the nanobody-Fc fusion proteins of different concentrations were added to each well at 30 μL/well and incubated at room temperature for 1 h. The plate was washed three times with PBST, and horseradish peroxidase-labeled anti-human Fc antibodies were added at 30 μL/well and incubated at room temperature for 50 min. The plate was washed three times with PBST. TMB substrate solution was added at 30 μL/well for color development in the dark for 1-5 min, 30 μL of 2 M hydrochloric acid was added to terminate the reaction, and the OD₄₅₀ was read using a microplate reader. Curve fitting was conducted and the EC₅₀ value was calculated using Graphpad Prism software.

How did the EC50 turn out when B1 was run?
Its EC50 is 1.22 ng/mL.

With B2 as the binder, how does the EC50 read?
Its EC50 is 1.5 ng/mL.

With B3 as the binder, how does the EC50 read?
Its EC50 is 1.18 ng/mL.

With B4 as the binder, how does the EC50 read?
Its EC50 is 2.3 ng/mL.

With B5 as the binder, how does the EC50 read?
Its EC50 is 2.62 ng/mL.

How did the EC50 turn out when B6 was run?
The EC50 was 3.04 ng/mL.

For B7, which EC50 is on record?
The EC50 was 5.88 ng/mL.

For B8, which EC50 is on record?
The EC50 was 1.83 ng/mL.

Which EC50 does the source give for B9 here?
The EC50 was 1.62 ng/mL.

For B10, which EC50 is on record?
The EC50 was 1.15 ng/mL.

B11 was tested. Which EC50 did it give?
The EC50 was 1.79 ng/mL.

Which EC50 does the source give for B12 here?
The EC50 was 3.61 ng/mL.

How did the EC50 turn out when B13 was run?
The EC50 was 2.51 ng/mL.

Which EC50 does the source give for B14 here?
Its EC50 is 3.35 ng/mL.

For B15, which EC50 is on record?
Its EC50 is 2 ng/mL.

With B16 as the binder, how does the EC50 read?
The EC50 was 2.67 ng/mL.

With B17 as the binder, how does the EC50 read?
Its EC50 is 1.41 ng/mL.

Which EC50 does the source give for B18 here?
The EC50 was 2.45 ng/mL.

How did the EC50 turn out when B19 was run?
Its EC50 is 2.05 ng/mL.

With B20 as the binder, how does the EC50 read?
Its EC50 is 1.52 ng/mL.

How did the EC50 turn out when B21 was run?
The EC50 was 1.94 ng/mL.

With B22 as the binder, how does the EC50 read?
The EC50 was 2.9 ng/mL.

How did the EC50 turn out when B23 was run?
The EC50 was 2.89 ng/mL.

With B24 as the binder, how does the EC50 read?
The EC50 was 1.74 ng/mL.

With B25 as the binder, how does the EC50 read?
The EC50 was 1.93 ng/mL.

Which EC50 does the source give for B26 here?
The EC50 was 1.33 ng/mL.

With B27 as the binder, how does the EC50 read?
Its EC50 is 1.79 ng/mL.

B28 was tested. Which EC50 did it give?
Its EC50 is 1.84 ng/mL.

How did the EC50 turn out when B29 was run?
The EC50 was 4.31 ng/mL.

With B30 as the binder, how does the EC50 read?
Its EC50 is 2.21 ng/mL.

Which EC50 does the source give for B31 here?
Its EC50 is 1.58 ng/mL.

— patent US20250145723A1 (MINGHUI PHARMACEUTICAL HANGZHOU, published 2025)
